Test results published in the supplement of paper PMC10724198.
± gives the standard deviation of the averaged measurements.

system: Saccharomyces cerevisiae; assay: protein stability index of tFT-peptide fusion (C-terminal peptide) (PSI (0-1 scale)); higher = more stable (slower turnover); conditions: genetic background: wild type; temperature: 30 C
Procedure: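 Multiplexed protein stability (MPS) profiling in S. cerevisiae. Random 12-aa peptides (tFT-X12 library) are fused to the C-terminus of a sfGFP-mCherry tandem fluorescent timer, after mCherry and a GGGS linker. Cells are FACS-sorted into 8 mCherry/sfGFP bins and deep-sequenced. The protein stability index (PSI) is the read-weighted bin average, scaled from 0 (unstable) to 1 (stable). Only peptides with >10 reads are reported; cells were grown at 30 °C in SC-His with glucose.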
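Also: PSI is a weighted mean of sequencing reads over stability bins, variants kept only with over 10 reads, mCherry proximal and sfGFP distal, peptide attached via GGGS linker.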

Going from LSLASTGVDSGG to PCLPPPLRLPPN, the protein stability index falls from 0.743 ± 0.03 to 0.631 ± 0.054.

Going from FFSSALILSLRL to PPPVPTRPSPPP, the protein stability index rises from 0.533 ± 0.023 to 0.6737 ± 0.0047.

GWALGRGRRVSG and FPLYKQKSGITY are within error of each other in protein stability index: 0.691 ± 0.033 for the first, 0.651 ± 0.0081 for the second.

ATTPPSSLFGPL and GGGWDVRGGCVG are within error of each other in protein stability index: 0.768 ± 0.072 for the first, 0.724 ± 0.0089 for the second.

VGLGFVVNAPGL and SRLSPSPLPPFL are within error of each other in protein stability index: 0.73 ± 0.1 for the first, 0.667 ± 0.023 for the second.

Compared with SEEAQRKRNTLK, PRTLRHSGRLAE is higher in protein stability index: 0.6715 ± 0.0051 for the first, 0.705 ± 0.016 for the second.

Going from SMNCTSLRPGSF to AWLPVLPLVSFF, the protein stability index falls from 0.7065 ± 0.0015 to 0.621 ± 0.062.

ARLGNPHFKIFS and GFLGCGSGCGWG are within error of each other in protein stability index: 0.684 ± 0.089 for the first, 0.744 ± 0.057 for the second.

PPLPPPLSLPPP and KKEKSQTKKQNI are within error of each other in protein stability index: 0.657 ± 0.06 for the first, 0.684 ± 0.12 for the second.

EHQNHNTARKRH and GTTHHRRKPSYL are within error of each other in protein stability index: 0.69835 ± 0.00027 for the first, 0.725 ± 0.05 for the second.

First: PPPPALIHSRPP
Second: GKVTRGTRRGGK
The protein stability index of the first is higher: 0.7406 ± 0.0045 for the first, 0.66901 ± 0.0003 for the second.

KGETRLTSARLI and RATRLFPPPHFS are within error of each other in protein stability index: 0.706 ± 0.028 for the first, 0.7 ± 0.037 for the second.

SLGPPSLSARTN and KNADHPRKDEQP are within error of each other in protein stability index: 0.626 ± 0.045 for the first, 0.661 ± 0.095 for the second.

KRYKSYEDKNVM and TTSQGHLCVAPR are within error of each other in protein stability index: 0.696 ± 0.033 for the first, 0.6827 ± 0.0038 for the second.

Going from ATGFSLLDFSMP to FSIFFFSFFSCF, the protein stability index falls from 0.679 ± 0.069 to 0.563 ± 0.039.

VARVGFRETLSF and VWGGWRRGRAWW are within error of each other in protein stability index: 0.703 ± 0.05 for the first, 0.72411 ± 0.00051 for the second.

Going from GCGGRTAAWGGG to PLTFSFPVRVCD, the protein stability index falls from 0.655 ± 0.024 to 0.537 ± 0.028.

First: MLYFSGLQVTIL
Second: LKPGYQGQHKED
The protein stability index of the first is lower: 0.622 ± 0.0075 for the first, 0.7 ± 0.029 for the second.

ITTKLRVTRLLR and SRPPHPSPPRTF are within error of each other in protein stability index: 0.766 ± 0.13 for the first, 0.675 ± 0.03 for the second.

Going from AISVCCFLCEFF to GVAPGRSRRKRG, the protein stability index rises from 0.509 ± 0.023 to 0.67 ± 0.018.

IFWGFSFRGWGG and DRSRWMVVRGGG are within error of each other in protein stability index: 0.684 ± 0.0086 for the first, 0.648 ± 0.13 for the second.

NNANDKKNKRKK and LWGFVEAIGSVL are within error of each other in protein stability index: 0.664 ± 0.044 for the first, 0.705 ± 0.18 for the second.

WADAAYLGCWWD and LPPLPPPPLLFP are within error of each other in protein stability index: 0.737 ± 0.072 for the first, 0.674 ± 0.002 for the second.

GMLGVIGGKVGR and CLRRGGAGEGAS are within error of each other in protein stability index: 0.699 ± 0.052 for the first, 0.687 ± 0.0037 for the second.

PWGGVLGWGLVG and GQPLAEKFGEFV are within error of each other in protein stability index: 0.608 ± 0.016 for the first, 0.623 ± 0.088 for the second.

PLESRPHNAHQR and NSHRYDSNIPDS are within error of each other in protein stability index: 0.663 ± 0.09 for the first, 0.685 ± 0.057 for the second.

NKVISETKKLDN and NVIGGGRSAGLV are within error of each other in protein stability index: 0.64983 ± 0.00019 for the first, 0.609 ± 0.053 for the second.

First: APPPPPIPAPPP
Second: SWPTRRLVVHGL
The protein stability index of the first is higher: 0.714 ± 0.038 for the first, 0.655 ± 0.0071 for the second.

VGCWLLGYFAHQ and SPPPPRPRPCAI are within error of each other in protein stability index: 0.675 ± 0.0095 for the first, 0.753 ± 0.12 for the second.

PPLTSSPPFSPP and LPRRDPGPSKEP are within error of each other in protein stability index: 0.728 ± 0.09 for the first, 0.66644 ± 0.00038 for the second.

RLHSLFVSCPTC and FGIGWNDRLVEC are within error of each other in protein stability index: 0.703 ± 0.023 for the first, 0.669 ± 0.057 for the second.

Going from LQTLDVFTTMKL to HTRLCFSPPRGI, the protein stability index rises from 0.58 ± 0.045 to 0.686 ± 0.02.

KKKKKKKTQTNK and KIKDKKNKQKKH are within error of each other in protein stability index: 0.692 ± 0.015 for the first, 0.709 ± 0.034 for the second.

FSPVSSFTLTLS and TLSPAPSPTPPP are within error of each other in protein stability index: 0.701 ± 0.11 for the first, 0.678 ± 0.048 for the second.

RVRWLRGVPGGL and PRKHSSRAINPI are within error of each other in protein stability index: 0.635 ± 0.09 for the first, 0.721 ± 0.06 for the second.

LAGVTLPRPSSA and RDMVSPLPLPLL are within error of each other in protein stability index: 0.6633 ± 0.0046 for the first, 0.613 ± 0.11 for the second.

KKKKKKKKHEQK and HRARWLSLGVTW are within error of each other in protein stability index: 0.678 ± 0.09 for the first, 0.655 ± 0.035 for the second.

Compared with TGLYLRCVWGVQ, PLLSSPAHPLPP is higher in protein stability index: 0.507 ± 0.046 for the first, 0.687 ± 0.053 for the second.

First: GSGPPVGNGLIV
Second: LAIIKLRGDLSY
The protein stability index of the first is higher: 0.7169 ± 0.0027 for the first, 0.6646 ± 0.0019 for the second.

NTNNKKNSKHSN and GGRWWGRGVFGG are within error of each other in protein stability index: 0.661 ± 0.02 for the first, 0.652 ± 0.028 for the second.

Compared with VGFISRIKSLYV, PPPPPLSPPPRP is higher in protein stability index: 0.648 ± 0.0096 for the first, 0.68631 ± 0.00031 for the second.

First: SGGGGGKEAVVR
Second: SYSPPPLPPHPP
The protein stability index of the first is higher: 0.646 ± 0.019 for the first, 0.55109 ± 0.00031 for the second.

KKGKEKEVKKKK and TQGLSSYYRHKI are within error of each other in protein stability index: 0.646 ± 0.074 for the first, 0.686 ± 0.061 for the second.

First: PVLPPCLLPTPV
Second: WASRSGPRVTLI
The protein stability index of the first is lower: 0.509 ± 0.093 for the first, 0.71 ± 0.018 for the second.

PPPRLPPPPPPP and GVGDELIRAEQT are within error of each other in protein stability index: 0.679 ± 0.048 for the first, 0.723 ± 0.018 for the second.

Compared with PSPPRPPLPART, CECAEGRGKDRS is lower in protein stability index: 0.763 ± 0.028 for the first, 0.591 ± 0.0069 for the second.

KRVGLRLCGRLT and QTNIGRKRTLPR are within error of each other in protein stability index: 0.704 ± 0.04 for the first, 0.718 ± 0.013 for the second.

ICRFSNRYSCPL and SLRNSFPPLSSP are within error of each other in protein stability index: 0.689 ± 0.016 for the first, 0.651 ± 0.07 for the second.

PTGYPGPRMMVW and PPNPLHPPPSRP are within error of each other in protein stability index: 0.771 ± 0.3 for the first, 0.653 ± 0.044 for the second.
